Assay results taken from the supplement of paper PMC12764529.
± gives the half width of the 95% confidence interval.

Assays:
[1] = folding stability dG unfold from chymotrypsin proteolysis; higher = more stable
Description: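 Folding stability of de novo designed mini-proteins (<80 aa, no Cys; designed by TrROS, TrMRF, ProteinMPNN and the joint model) was measured by cDNA display proteolysis with trypsin and chymotrypsin. Each protease was used at 11 concentrations in a threefold dilution series plus a no-protease condition. K50 was inferred by Bayesian fitting of sequencing counts, and dG unfold was derived against a sequence-predicted unfolded-state K50 (Tsuboyama et al. method). Sequences shown include variable-length N-terminal GS-type padding (SAGGSAGG...) inside a display construct carrying a PA tag. Rows were kept only if the AF2 dimer inter-PAE was >15, to exclude likely homo-oligomers.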

[2] = folding stability dG unfold (combined trypsin and chymotrypsin); higher = more stable
In short: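 Only designs with AlphaFold2 dimer inter-PAE above 15 were retained; each was a mini-protein under 80 residues with no cysteine, in a PA-tagged cDNA display construct. After digestion with trypsin and chymotrypsin and sequencing, K50 was inferred by Bayesian fitting of counts, and unfolding free energy was derived per protease or combined against a sequence-predicted unfolded-state K50 and a shared folded-state K50.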

Sequence: SAGGSAGGSAGGMTLTITDDDPSVGPRTFTLTEPGSSKTTTLTSAEMEALKAAGPVTVAGSAGGSAGGSAGG [r7_452_JUSTAS]
- folding stability dG unfold [1]: 0.122 ± 0.22 kcal/mol
- folding stability dG unfold [2]: -0.209 ± 0.23 kcal/mol

Sequence: SAGGSAGGSAGGMTTKYVITVEVPGENRTETIYLDVPPSRPEEAEALAKEISPNAKIERLSAGGSAGGSAGG [r11_250_JUSTAS]
- folding stability dG unfold [1]: 0.187 ± 0.16 kcal/mol
- folding stability dG unfold [2]: -0.144 ± 0.29 kcal/mol

Sequence: SAGGSAGGSAGGMTTLVLPAEVEPVPDGVRVRLPDGEDLYVPPGERVERTPDRVEVTLGSAGGSAGGSAGGS [r10_305_JUSTAS]
- folding stability dG unfold [1]: 0.383 ± 0.058 kcal/mol
- folding stability dG unfold [2]: -0.448 ± 0.25 kcal/mol

Sequence: SAGGSAGGSAGGMTVTVTVPPEKVEETIKKLGSKAKSVEREVLETPLGEKVAVVTVTLENSAGGSAGGSAGG [r7_904_JUSTAS]
- folding stability dG unfold [1]: 0.647 ± 0.023 kcal/mol
- folding stability dG unfold [2]: 0.047 ± 0.093 kcal/mol

Sequence: SAGGSAGGSAGGMVEVLPVPDGSTLERDPAGYVTRYDPATGTATTVPLADVELSPGSPELSAGGSAGGSAGG [r7_656_JUSTAS]
- folding stability dG unfold [1]: 0.679 ± 0.11 kcal/mol
- folding stability dG unfold [2]: -0.0715 ± 0.23 kcal/mol

Sequence: SAGGSAGGSAGGMVKKTYEKKKPPGSMEYVTEKEYDPKTNTVKTTTVPVSEYKNIPNKNSAGGSAGGSAGGS [r10_1077_JUSTAS]
- folding stability dG unfold [1]: -0.0965 ± 0.56 kcal/mol
- folding stability dG unfold [2]: < -1 kcal/mol

Sequence: SAGGSAGGSAGGNKIHIMMPYDWAEEFANELQQQGIDPDNVKIEVHPMEMPPPPPPGDKSAGGSAGGSAGGS [r10_602_TrROS]
- folding stability dG unfold [1]: -0.0563 ± 0.11 kcal/mol
- folding stability dG unfold [2]: < -1 kcal/mol

Sequence: SAGGSAGGSAGGPDVTTSDSVSLERLPDDTIVLRRTTTVTPPTGPPVVTSTTTVLPPSTLSAGGSAGGSAGG [r17_312_JUSTAS]
- folding stability dG unfold [1]: -0.319 ± 0.41 kcal/mol
- folding stability dG unfold [2]: < -1 kcal/mol

Sequence: SAGGSAGGSAGGPEIKPFDSLEEVVEEIKKNPNKERIYLLPDSVIYTLKEDKILKIEPLKSAGGSAGGSAGG [r7_532_TrMRF]
- folding stability dG unfold [1]: -0.105 ± 0.47 kcal/mol
- folding stability dG unfold [2]: < -1 kcal/mol

Sequence: SAGGSAGGSAGGPERELTVPITTPDGSGKSISAELGEEELEKLIEENPEWKEAIIEARRESAGGSAGGSAGG [r7_637_JUSTAS]
- folding stability dG unfold [1]: 0.975 ± 0.059 kcal/mol
- folding stability dG unfold [2]: 0.483 ± 0.11 kcal/mol

Sequence: SAGGSAGGSAGGPNWRIITHEIPIKDGEIEINLPEGIKPQSIERNPDDGYIKVSIVIPLSAGGSAGGSAGGS [r10_906_TrROS]
- folding stability dG unfold [1]: -0.259 ± 0.14 kcal/mol
- folding stability dG unfold [2]: -0.54 ± 0.15 kcal/mol

Sequence: SAGGSAGGSAGGPPIIEFPIKGDNPEQAKRFAKEVVDLLPDQNPENVDITTTDGWVRITSAGGSAGGSAGGS [r10_182_TrROS]
- folding stability dG unfold [1]: -0.636 ± 0.67 kcal/mol
- folding stability dG unfold [2]: < -1 kcal/mol

Sequence: SAGGSAGGSAGGPPNKKFILRIEHPGRPITFPFKSPKGLDEAADKFPDKFGMPPKIEVHPSAGGSAGGSAGG [r7_18_TrROS]
- folding stability dG unfold [1]: -0.795 ± 0.92 kcal/mol
- folding stability dG unfold [2]: < -1 kcal/mol

Sequence: SAGGSAGGSAGGPPTTARITLPDGRTYTVPVPVDPTTGTVYVEDIRRAVAPNYTFTIELGSAGGSAGGSAGG [r7_492_TrMRF]
- folding stability dG unfold [1]: 0.981 ± 0.16 kcal/mol
- folding stability dG unfold [2]: 0.414 ± 0.14 kcal/mol

Sequence: SAGGSAGGSAGGQPLLARPNDEPIVEVEISETTTLLPNGTVVTTYSVPKKGILTTVTLVSAGGSAGGSAGGS [r10_160_JUSTAS]
- folding stability dG unfold [1]: -0.703 ± 0.29 kcal/mol
- folding stability dG unfold [2]: < -1 kcal/mol

Sequence: SAGGSAGGSAGGRIRLRTELLVRREDGSLSRFRETAVFEVEARPRPVPAPRAYRDANGRLVSAGGSAGGSAG [r3_252_TrMRF]
- folding stability dG unfold [1]: 0.264 ± 0.075 kcal/mol
- folding stability dG unfold [2]: -0.558 ± 0.13 kcal/mol

Sequence: SAGGSAGGSAGGSDPSATLRVTLTPRTTRTRLVTDEDGVERTYTFGGDGTLSVSLLPSGSAGGSAGGSAGGS [r4_162_TrMRF]
- folding stability dG unfold [1]: 0.647 ± 0.15 kcal/mol
- folding stability dG unfold [2]: 0.258 ± 0.091 kcal/mol

Sequence: SAGGSAGGSAGGSKKKKKKPKKVLLVRNKKTKKLYVFKTKEEAKKAGFEIVKDGKIKKKSAGGSAGGSAGGS [r4_306_TrROS_Hall]
- folding stability dG unfold [1]: 0.258 ± 0.55 kcal/mol
- folding stability dG unfold [2]: 0.0938 ± 0.41 kcal/mol

Sequence: SAGGSAGGSAGGSKPDPEIEQERNPEKGYRTIKIEFPDKPRTIMVKNLPPDDPALRDAFSAGGSAGGSAGGS [r4_328_TrROS]
- folding stability dG unfold [1]: -0.0426 ± 0.23 kcal/mol
- folding stability dG unfold [2]: -0.349 ± 0.18 kcal/mol

Sequence: SAGGSAGGSAGGSKTKTISFPMPWDDIPELAEELKDKGPVTIEHQDPDGNPREFTIPPDSAGGSAGGSAGGS [r4_341_TrROS]
- folding stability dG unfold [1]: 0.484 ± 0.13 kcal/mol
- folding stability dG unfold [2]: 0.0258 ± 0.19 kcal/mol

Sequence: SAGGSAGGSAGGSKVNDVTAEKNFLVFTEDGRVLGKGEVERAFAAGAGPIGAVPLPPGASAGGSAGGSAGGS [r4_47_TrMRF]
- folding stability dG unfold [1]: -0.54 ± 0.23 kcal/mol
- folding stability dG unfold [2]: < -1 kcal/mol

Sequence: SAGGSAGGSAGGSKVPPGAKITVERHDGGYRTVEIRPPNGKPVEIMMPEDDADEIADQISAGGSAGGSAGGS [r4_16_TrROS]
- folding stability dG unfold [1]: -1.26 ± 0.82 kcal/mol
- folding stability dG unfold [2]: < -1 kcal/mol

Sequence: SAGGSAGGSAGGSMTVTETRYVGTDPATGVATTLSTYRDASGTPGLVTTYPGGAVTVALSAGGSAGGSAGGS [r4_35_JUSTAS]
- folding stability dG unfold [1]: 0.0995 ± 0.26 kcal/mol
- folding stability dG unfold [2]: -0.312 ± 0.28 kcal/mol

Sequence: SAGGSAGGSAGGSMVPVPVNILKLAPGGIPLGTYPVEPLRKEGISPEEFAKKNGYIISGSAGGSAGGSAGGS [r10_153_JUSTAS]
- folding stability dG unfold [1]: -0.0261 ± 0.3 kcal/mol
- folding stability dG unfold [2]: -0.827 ± 0.26 kcal/mol

Sequence: SAGGSAGGSAGGSNPNKPKEFYRIEYTHGGKPHTHMFPPNEPIPPGPNMKVDPFPADDLSAGGSAGGSAGGS [r4_107_TrROS]
- folding stability dG unfold [1]: -0.131 ± 0.23 kcal/mol
- folding stability dG unfold [2]: -0.688 ± 0.69 kcal/mol

Sequence: SAGGSAGGSAGGSPFWRIKIENPGNGKEITVMVPPDDIDKAKEEAEQEGLKKIEIEPVPSAGGSAGGSAGGS [r4_102_TrROS]
- folding stability dG unfold [1]: -0.0872 ± 0.3 kcal/mol
- folding stability dG unfold [2]: -0.993 ± 0.7 kcal/mol

Sequence: SAGGSAGGSAGGSPLTLTRTLTLTRTTTDPDVPGTTTTETRTLTLTTELTLPPLPPGTPSAGGSAGGSAGGS [r4_231_TrROS_Hall]
- folding stability dG unfold [1]: 0.588 ± 0.18 kcal/mol
- folding stability dG unfold [2]: < -1 kcal/mol

Sequence: SAGGSAGGSAGGSPRHYYVEIEFPNGRKMSIPIESPEEALDYLEDHNYPIKDVELHPLKSAGGSAGGSAGGS [r4_213_TrROS]
- folding stability dG unfold [1]: 0.0167 ± 0.25 kcal/mol
- folding stability dG unfold [2]: -0.323 ± 0.41 kcal/mol

Sequence: SAGGSAGGSAGGSPVIFVDPVEGRARVLLAAPAPNPDGEPGGLGLAEVEFEVGDVRLLLSAGGSAGGSAGGS [r4_10_TrMRF]
- folding stability dG unfold [1]: 0.753 ± 0.075 kcal/mol
- folding stability dG unfold [2]: -0.00848 ± 0.12 kcal/mol

Sequence: SAGGSAGGSAGGSSMLTTRPLPGGRTLLRTTLPDGTILVTRYDAAGEPVLETLPPSTPLLSAGGSAGGSAGG [r7_215_JUSTAS]
- folding stability dG unfold [1]: 0.102 ± 0.27 kcal/mol
- folding stability dG unfold [2]: < -1 kcal/mol

Sequence: SAGGSAGGSAGGSSTITLDPANPTVVTDPATGVPTTGVSLAELEKLGMKPAGPDAYVVLSAGGSAGGSAGGS [r4_306_JUSTAS]
- folding stability dG unfold [1]: 0.289 ± 0.18 kcal/mol
- folding stability dG unfold [2]: < -1 kcal/mol

Sequence: SAGGSAGGSAGGSSVYTSPSKPIAITSRTLVPESNLVRVEAVDPSGAPIEGIIPPSATLGSAGGSAGGSAGG [r7_427_JUSTAS]
- folding stability dG unfold [1]: -0.114 ± 0.27 kcal/mol
- folding stability dG unfold [2]: < -1 kcal/mol
